{
  "source": "paper PMC4787810",
  "about": "(Nucleic Acids Research, 2015)",
  "key": {"[1]": {"molecular_target": "T1, HpDnaB replicative helicase;HpDnaG helicase-binding domain (HpDnaGHBD) (Helicobacter pylori;Helicobacter pylori …, UniProt O25916;P56064 1-488;415-559, |)", "T1 sequence 1": "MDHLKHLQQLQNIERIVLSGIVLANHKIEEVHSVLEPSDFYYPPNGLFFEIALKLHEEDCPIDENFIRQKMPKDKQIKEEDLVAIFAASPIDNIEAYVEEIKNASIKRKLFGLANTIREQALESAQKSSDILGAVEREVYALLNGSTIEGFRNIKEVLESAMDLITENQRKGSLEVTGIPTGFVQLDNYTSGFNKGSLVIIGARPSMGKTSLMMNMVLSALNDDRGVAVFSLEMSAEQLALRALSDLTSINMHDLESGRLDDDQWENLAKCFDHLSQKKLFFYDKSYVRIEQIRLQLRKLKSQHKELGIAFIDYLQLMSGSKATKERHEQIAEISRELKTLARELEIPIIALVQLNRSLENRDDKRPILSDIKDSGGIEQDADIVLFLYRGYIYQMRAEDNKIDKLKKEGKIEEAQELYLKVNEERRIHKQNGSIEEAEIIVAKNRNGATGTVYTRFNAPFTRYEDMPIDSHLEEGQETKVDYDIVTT", "T1 sequence 2": "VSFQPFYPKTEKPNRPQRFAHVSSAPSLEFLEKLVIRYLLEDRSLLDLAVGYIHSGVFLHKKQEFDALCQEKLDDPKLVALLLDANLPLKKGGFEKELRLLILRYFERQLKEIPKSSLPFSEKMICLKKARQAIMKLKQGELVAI", "assay": "fluorescence anisotropy"}, "[2]": {"molecular_target": "T2, HpDnaB replicative helicase (Helicobacter pylori, UniProt O25916 1-488)", "T2 sequence": "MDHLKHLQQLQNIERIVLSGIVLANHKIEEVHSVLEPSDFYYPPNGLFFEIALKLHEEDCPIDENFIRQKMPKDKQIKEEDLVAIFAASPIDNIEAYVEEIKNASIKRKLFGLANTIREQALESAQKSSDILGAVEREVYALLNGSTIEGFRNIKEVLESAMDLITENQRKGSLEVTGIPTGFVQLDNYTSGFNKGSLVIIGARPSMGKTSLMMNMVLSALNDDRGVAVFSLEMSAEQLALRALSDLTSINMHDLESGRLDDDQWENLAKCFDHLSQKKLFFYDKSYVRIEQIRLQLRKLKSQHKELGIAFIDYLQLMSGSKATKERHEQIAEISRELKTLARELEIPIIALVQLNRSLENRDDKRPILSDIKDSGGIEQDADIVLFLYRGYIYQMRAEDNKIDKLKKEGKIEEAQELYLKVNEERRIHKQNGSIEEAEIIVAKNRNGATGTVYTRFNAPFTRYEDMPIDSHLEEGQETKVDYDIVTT", "assay": "fluorescence anisotropy"}, "[3]": {"molecular_target": "T1, HpDnaB replicative helicase;HpDnaG …", "assay": "fluorescence anisotropy", "remark": "listed apart in the source"}, "[4]": {"molecular_target": "T2, HpDnaB replicative helicase", "assay": "fluorescence anisotropy", "remark": "listed apart in the source"}, "[5]": {"molecular_target": "the molecule itself", "assay": "SEC-MALS"}, "[6]": {"molecular_target": "the molecule itself", "assay": "cross-linking"}, "[7]": {"molecular_target": "T2, HpDnaB replicative helicase", "assay": "fluorescence anisotropy", "remark": "listed apart in the source"}, "[8]": {"molecular_target": "T2, HpDnaB replicative helicase", "assay": "fluorescence anisotropy", "remark": "listed apart in the source"}},
  "note": "Where two headings read alike, the source gives them in different places.",
  "data": [
    {"binder": "TTTTTTTTTTTTTTTTTTTT (ssDNA)", "note": "[20dT]", "values": [
      {"measurement": "Kd", "setting": "[1]", "value": "8.3 ± 0.6", "unit": "nM"},
      {"measurement": "Kd", "setting": "[2]", "value": "15 ± 1", "unit": "nM"},
      {"measurement": "Kd", "setting": "[3]", "value": "1 ± 0.1", "unit": "nM"},
      {"measurement": "Kd", "setting": "[4]", "value": "3.1 ± 0.1", "unit": "nM"}
    ]},
    {"binder": "HpDnaB^Δ9 (N-terminal deletion mutant starting at residue 10) (domain or fragment, Helicobacter pylori, UniProt O25916 10-488, looked up) LQNIERIVLSGIVLANHKIEEVHSVLEPSDFYYPPNGLFFEIALKLHEEDCPIDENFIRQKMPKDKQIKEEDLVAIFAASPIDNIEAYVEEIKNASIKRKLFGLANTIREQALESAQKSSDILGAVEREVYALLNGSTIEGFRNIKEVLESAMDLITENQRKGSLEVTGIPTGFVQLDNYTSGFNKGSLVIIGARPSMGKTSLMMNMVLSALNDDRGVAVFSLEMSAEQLALRALSDLTSINMHDLESGRLDDDQWENLAKCFDHLSQKKLFFYDKSYVRIEQIRLQLRKLKSQHKELGIAFIDYLQLMSGSKATKERHEQIAEISRELKTLARELEIPIIALVQLNRSLENRDDKRPILSDIKDSGGIEQDADIVLFLYRGYIYQMRAEDNKIDKLKKEGKIEEAQELYLKVNEERRIHKQNGSIEEAEIIVAKNRNGATGTVYTRFNAPFTRYEDMPIDSHLEEGQETKVDYDIVTT", "values": [
      {"measurement": "stoichiometry N", "setting": "[5]", "value": "~6"},
      {"measurement": "stoichiometry N", "setting": "[6]", "value": 6}
    ]},
    {"binder": "TTTTTTTTTTTTTTTTTTTTTTTTTTTTTTTTTTTTTTTTTTTTTTTTTT (ssDNA)", "note": "[50dT]", "values": [
      {"measurement": "Kd", "setting": "[7]", "value": "70 ± 6", "unit": "nM"},
      {"measurement": "Kd", "setting": "[8]", "value": "1.8 ± 0.2", "unit": "nM"}
    ]},
    {"binder": "HpDnaB^L4A (enzyme, Helicobacter pylori, UniProt O25916 1-488, looked up) MDHAKHLQQLQNIERIVLSGIVLANHKIEEVHSVLEPSDFYYPPNGLFFEIALKLHEEDCPIDENFIRQKMPKDKQIKEEDLVAIFAASPIDNIEAYVEEIKNASIKRKLFGLANTIREQALESAQKSSDILGAVEREVYALLNGSTIEGFRNIKEVLESAMDLITENQRKGSLEVTGIPTGFVQLDNYTSGFNKGSLVIIGARPSMGKTSLMMNMVLSALNDDRGVAVFSLEMSAEQLALRALSDLTSINMHDLESGRLDDDQWENLAKCFDHLSQKKLFFYDKSYVRIEQIRLQLRKLKSQHKELGIAFIDYLQLMSGSKATKERHEQIAEISRELKTLARELEIPIIALVQLNRSLENRDDKRPILSDIKDSGGIEQDADIVLFLYRGYIYQMRAEDNKIDKLKKEGKIEEAQELYLKVNEERRIHKQNGSIEEAEIIVAKNRNGATGTVYTRFNAPFTRYEDMPIDSHLEEGQETKVDYDIVTT", "values": [
      {"measurement": "binding result", "setting": "[5]", "value": "binds"}
    ]},
    {"binder": "HpDnaB^E80A (enzyme, Helicobacter pylori, UniProt O25916 1-488, looked up) MDHLKHLQQLQNIERIVLSGIVLANHKIEEVHSVLEPSDFYYPPNGLFFEIALKLHEEDCPIDENFIRQKMPKDKQIKEADLVAIFAASPIDNIEAYVEEIKNASIKRKLFGLANTIREQALESAQKSSDILGAVEREVYALLNGSTIEGFRNIKEVLESAMDLITENQRKGSLEVTGIPTGFVQLDNYTSGFNKGSLVIIGARPSMGKTSLMMNMVLSALNDDRGVAVFSLEMSAEQLALRALSDLTSINMHDLESGRLDDDQWENLAKCFDHLSQKKLFFYDKSYVRIEQIRLQLRKLKSQHKELGIAFIDYLQLMSGSKATKERHEQIAEISRELKTLARELEIPIIALVQLNRSLENRDDKRPILSDIKDSGGIEQDADIVLFLYRGYIYQMRAEDNKIDKLKKEGKIEEAQELYLKVNEERRIHKQNGSIEEAEIIVAKNRNGATGTVYTRFNAPFTRYEDMPIDSHLEEGQETKVDYDIVTT", "values": [
      {"measurement": "binding result", "setting": "[5]", "value": "binds"}
    ]},
    {"binder": "HpDnaB^Q8A (enzyme, Helicobacter pylori, UniProt O25916 1-488, looked up) MDHLKHLAQLQNIERIVLSGIVLANHKIEEVHSVLEPSDFYYPPNGLFFEIALKLHEEDCPIDENFIRQKMPKDKQIKEEDLVAIFAASPIDNIEAYVEEIKNASIKRKLFGLANTIREQALESAQKSSDILGAVEREVYALLNGSTIEGFRNIKEVLESAMDLITENQRKGSLEVTGIPTGFVQLDNYTSGFNKGSLVIIGARPSMGKTSLMMNMVLSALNDDRGVAVFSLEMSAEQLALRALSDLTSINMHDLESGRLDDDQWENLAKCFDHLSQKKLFFYDKSYVRIEQIRLQLRKLKSQHKELGIAFIDYLQLMSGSKATKERHEQIAEISRELKTLARELEIPIIALVQLNRSLENRDDKRPILSDIKDSGGIEQDADIVLFLYRGYIYQMRAEDNKIDKLKKEGKIEEAQELYLKVNEERRIHKQNGSIEEAEIIVAKNRNGATGTVYTRFNAPFTRYEDMPIDSHLEEGQETKVDYDIVTT", "values": [
      {"measurement": "stoichiometry N", "setting": "[6]", "value": 6}
    ]}
  ]
}
